Data taken from the supplement of paper PMC10567573.

B1: FAM98B (parent)
chain: QLDKNSEVYQEVQAMFDTLGIPKS

Variants of: B1
Assay: protein stability index of a GFP-peptide fusion (GPS, HEK-293T) (PSI 1-6); higher = more stable
Conditions: c terminus: a fixed tail appended
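Note: lentivirally expressed fusions sorted by FACS into six bins by GFP to DsRed ratio, PSI derived from sequencing read proportions per bin multiplied by bin number.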

Row | Variant | protein stability index
1 | QLDKNSEVYQEVQRMFDTLGIPKS [A14R] | 2.55
2 | QLDKNSEVYQEVQIMFDTLGIPKS [A14I] | 3.22
3 | QLDKNSEVYQEVQNMFDTLGIPKS [A14N] | 4.67
4 | QLDKNSEVYQEVQVMFDTLGIPKS [A14V] | 2.77
5 | QLDKNSEVYQEVQLMFDTLGIPKS [A14L] | 2.83
6 | QLDKNSEVYQEVQGMFDTLGIPKS [A14G] | 2.58
7 | QLDKNSEVYQEVQEMFDTLGIPKS [A14E] | 3.79
8 | QLDKNSEVYQEVQPMFDTLGIPKS [A14P] | 3.81
9 | QLDKNSEVYQEVQFMFDTLGIPKS [A14F] | 2.64
10 | QLDKNSEVYQEVQHMFDTLGIPKS [A14H] | 3.14
11 | QLDKNSEVYQEVQDMFDTLGIPKS [A14D] | 3.82
12 | QLDKNSEVYQEVQMMFDTLGIPKS [A14M] | 2.89
13 | QLDKNSEVYQEVQWMFDTLGIPKS [A14W] | 2.63
14 | QLDKNSEVYQEVQQMFDTLGIPKS [A14Q] | 3.61
15 | QLDKNSEVYQEVQSMFDTLGIPKS [A14S] | 3.37
16 | QLDKNSEVYQEVQTMFDTLGIPKS [A14T] | 3.34
17 | QLDKNSEVYQEVQCMFDTLGIPKS [A14C] | 3.04
18 | QLDKNSEVYQEVQYMFDTLGIPKS [A14Y] | 3.22
19 | QLDKNSEVYQEVQKMFDTLGIPKS [A14K] | 3.03
20 | QLDKNSEVYQEVQAMFDTLGEPKS [I21E] | 4.21
21 | QLDKNSEVYQEVQAMFDTLGAPKS [I21A] | 3.72
22 | QLDKNSEVYQEVQAMFDTLGNPKS [I21N] | 3.41
23 | QLDKNSEVYQEVQAMFDTLGFPKS [I21F] | 3.3
24 | QLDKNSEVYQEVQAMFDTLGCPKS [I21C] | 3.53

Row | Variant | protein stability index
25 | QLDKNSEVYQEVQAMFDTLGPPKS [I21P] | 3.6
26 | QLDKNSEVYQEVQAMFDTLGSPKS [I21S] | 3.34
27 | QLDKNSEVYQEVQAMFDTLGTPKS [I21T] | 3.69
28 | QLDKNSEVYQEVQAMFDTLGVPKS [I21V] | 3.51
29 | QLDKNSEVYQEVQAMFDTLGKPKS [I21K] | 3.58
30 | QLDKNSEVYQEVQAMFDTLGMPKS [I21M] | 3.27
31 | QLDKNSEVYQEVQAMFDTLGHPKS [I21H] | 3.4
32 | QLDKNSEVYQEVQAMFDTLGDPKS [I21D] | 3.8
33 | QLDKNSEVYQEVQAMFDTLGLPKS [I21L] | 4
34 | QLDKNSEVYQEVQAMFDTLGGPKS [I21G] | 3.69
35 | QLDKNSEVYQEVQAMFDTLGRPKS [I21R] | 2.76
36 | QLDKNSEVYQEVQAMFDTLGQPKS [I21Q] | 3.64
37 | QLDKNSEVYQEVQAEFDTLGIPKS [M15E] | 4.28
38 | QLDKNSEVYQEVQADFDTLGIPKS [M15D] | 3.68
39 | QLDKNSEVYQEVQASFDTLGIPKS [M15S] | 3.22
40 | QLDKNSEVYQEVQACFDTLGIPKS [M15C] | 2.73
41 | QLDKNSEVYQEVQANFDTLGIPKS [M15N] | 3.1
42 | QLDKNSEVYQEVQAQFDTLGIPKS [M15Q] | 3.56
43 | QLDKNSEVYQEVQAYFDTLGIPKS [M15Y] | 2.55
44 | QLDKNSEVYQEVQAKFDTLGIPKS [M15K] | 3.32
45 | QLDKNSEVYQEVQAPFDTLGIPKS [M15P] | 3.27
46 | QLDKNSEVYQEVQARFDTLGIPKS [M15R] | 3.34
47 | QLDKNSEVYQEVQATFDTLGIPKS [M15T] | 3.25
48 | QLDKNSEVYQEVQAAFDTLGIPKS [M15A] | 2.88

Row | Variant | protein stability index
49 | QLDKNSEVYQEVQAHFDTLGIPKS [M15H] | 3.08
50 | QLDKNSEVYQEVQAWFDTLGIPKS [M15W] | 3.55
51 | QLDKNSEVYQEVQAIFDTLGIPKS [M15I] | 3.24
52 | QLDKNSEVYQEVQAGFDTLGIPKS [M15G] | 3.69
53 | QLDKNSEVYQEVQALFDTLGIPKS [M15L] | 2.94
54 | QLDKNSEVYQEVQAVFDTLGIPKS [M15V] | 2.91
55 | QLDKNSEVYQEVQAFFDTLGIPKS [M15F] | 3.5
56 | QLDKNSEVYQEVQAMFDTCGIPKS [L19C] | 3.69
57 | QLDKNSEVYQEVQAMFDTNGIPKS [L19N] | 3.38
58 | QLDKNSEVYQEVQAMFDTYGIPKS [L19Y] | 3.6
59 | QLDKNSEVYQEVQAMFDTAGIPKS [L19A] | 3.64
60 | QLDKNSEVYQEVQAMFDTKGIPKS [L19K] | 3.32
61 | QLDKNSEVYQEVQAMFDTFGIPKS [L19F] | 2.85
62 | QLDKNSEVYQEVQAMFDTQGIPKS [L19Q] | 3.76
63 | QLDKNSEVYQEVQAMFDTPGIPKS [L19P] | 3.17
64 | QLDKNSEVYQEVQAMFDTTGIPKS [L19T] | 3.59
65 | QLDKNSEVYQEVQAMFDTIGIPKS [L19I] | 3.06
66 | QLDKNSEVYQEVQAMFDTSGIPKS [L19S] | 3.46
67 | QLDKNSEVYQEVQAMFDTDGIPKS [L19D] | 2.85
68 | QLDKNSEVYQEVQAMFDTVGIPKS [L19V] | 3.56
69 | QLDKNSEVYQEVQAMFDTMGIPKS [L19M] | 3.15
70 | QLDKNSEVYQEVQAMFDTHGIPKS [L19H] | 3.71
71 | QLDKNSEVYQEVQAMFDTGGIPKS [L19G] | 3.49
72 | QLDKNSEVYQEVQAMFDTRGIPKS [L19R] | 3.7

Row | Variant | protein stability index
73 | QLDKNSEVYQEVQAMFDTWGIPKS [L19W] | 2.45
74 | QLDKNSEVYQEVQAMFDTEGIPKS [L19E] | 3.58
75 | QLDKNSEVYQEVQAMFDKLGIPKS [T18K] | 2.25
76 | QLDKNSEVYQEVQAMFDCLGIPKS [T18C] | 2.59
77 | QLDKNSEVYQEVQAMFDQLGIPKS [T18Q] | 3.24
78 | QLDKNSEVYQEVQAMFDFLGIPKS [T18F] | 3.52
79 | QLDKNSEVYQEVQAMFDGLGIPKS [T18G] | 3.25
80 | QLDKNSEVYQEVQAMFDRLGIPKS [T18R] | 3.33
81 | QLDKNSEVYQEVQAMFDALGIPKS [T18A] | 3.34
82 | QLDKNSEVYQEVQAMFDPLGIPKS [T18P] | 3.38
83 | QLDKNSEVYQEVQAMFDNLGIPKS [T18N] | 3.13
84 | QLDKNSEVYQEVQAMFDLLGIPKS [T18L] | 2.97
85 | QLDKNSEVYQEVQAMFDDLGIPKS [T18D] | 3.87
86 | QLDKNSEVYQEVQAMFDWLGIPKS [T18W] | 2.02
87 | QLDKNSEVYQEVQAMFDVLGIPKS [T18V] | 2.57
88 | QLDKNSEVYQEVQAMFDELGIPKS [T18E] | 3.57
89 | QLDKNSEVYQEVQAMFDSLGIPKS [T18S] | 2.85
90 | QLDKNSEVYQEVQAMFDMLGIPKS [T18M] | 2.78
91 | QLDKNSEVYQEVQAMFDYLGIPKS [T18Y] | 2.67
92 | QLDKNSEVYQEVQAMFDILGIPKS [T18I] | 2.79
93 | QLDKNSEVYQEVQAMFDHLGIPKS [T18H] | 3.07
94 | QLDKNSEVYQEVVAMFDTLGIPKS [Q13V] | 3.15
